Measured values taken from article PMC10397247.
One block for each binder: values may come before it.

Tests used:
4H1109-AA = target: T1, 4H1109-AA; test: two-hybrid library CCmax;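 further: natural log of median RNA to DNA barcode read ratio; higher means stronger binding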
T1 chain: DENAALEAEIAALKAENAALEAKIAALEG

4H1146-AA = target: T2, 4H1146-AA; test: two-hybrid library CCmax; conditions: mean of both orientations;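 further: natural log of median RNA to DNA barcode read ratio; higher means stronger binding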
T2 chain: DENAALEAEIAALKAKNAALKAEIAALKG

4H1348-AA = target: T3, 4H1348-AA; test: two-hybrid library CCmax; conditions: mean of both orientations;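 further: natural log of median RNA to DNA barcode read ratio; higher means stronger binding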
T3 chain: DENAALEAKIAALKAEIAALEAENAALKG

4H1391-AA = target: T4, 4H1391-AA; test: two-hybrid library CCmax; conditions: mean of both orientations;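 further: natural log of median RNA to DNA barcode read ratio; higher means stronger binding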
T4 chain: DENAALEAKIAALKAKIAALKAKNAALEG

4H146-AA = target: T5, 4H146-AA; test: two-hybrid library CCmax; conditions: mean of both orientations
T5 chain: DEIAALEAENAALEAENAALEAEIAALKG

4H1809-AA = target: T6, 4H1809-AA; test: two-hybrid library CCmax; conditions: mean of both orientations
T6 chain: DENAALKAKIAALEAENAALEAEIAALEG

4H1854-AA = target: T7, 4H1854-AA; test: two-hybrid library CCmax; conditions: mean of both orientations
T7 chain: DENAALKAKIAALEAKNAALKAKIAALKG

4H189-AA = target: T8, 4H189-AA; test: two-hybrid library CCmax; conditions: mean of both orientations
T8 chain: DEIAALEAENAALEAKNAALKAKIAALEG

4H2248-AA = target: T9, 4H2248-AA; test: two-hybrid library CCmax; conditions: mean of both orientations
T9 chain: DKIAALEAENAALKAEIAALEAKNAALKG

4H2283-AA = target: T10, 4H2283-AA; test: two-hybrid library CCmax; conditions: mean of both orientations
T10 chain: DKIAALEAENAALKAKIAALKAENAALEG

4H2713-AA = target: T11, 4H2713-AA; test: two-hybrid library CCmax; conditions: mean of both orientations
T11 chain: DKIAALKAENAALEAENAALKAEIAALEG

4H2742-AA = target: T12, 4H2742-AA; test: two-hybrid library CCmax; conditions: mean of both orientations
T12 chain: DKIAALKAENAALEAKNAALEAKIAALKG

4H2948-AA = target: T13, 4H2948-AA; test: two-hybrid library CCmax; conditions: mean of both orientations
T13 chain: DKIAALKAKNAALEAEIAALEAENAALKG

4H2991-AA = target: T14, 4H2991-AA; test: two-hybrid library CCmax; conditions: mean of both orientations
T14 chain: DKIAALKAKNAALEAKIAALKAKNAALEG

4H3029-AA = target: T15, 4H3029-AA; test: two-hybrid library CCmax; conditions: mean of both orientations
T15 chain: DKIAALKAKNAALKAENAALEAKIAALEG

4H3066-AA = target: T16, 4H3066-AA; test: two-hybrid library CCmax; conditions: mean of both orientations
T16 chain: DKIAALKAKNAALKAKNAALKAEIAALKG

4H3102-AA = target: T17, 4H3102-AA; test: two-hybrid library CCmax; conditions: mean of both orientations
T17 chain: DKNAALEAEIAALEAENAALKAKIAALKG

4H3121-AA = target: T18, 4H3121-AA; test: two-hybrid library CCmax; conditions: mean of both orientations
T18 chain: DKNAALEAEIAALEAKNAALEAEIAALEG

4H3417-AA = target: T19, 4H3417-AA; test: two-hybrid library CCmax; conditions: mean of both orientations
T19 chain: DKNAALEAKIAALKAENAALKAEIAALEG

4H3446-AA = target: T20, 4H3446-AA; test: two-hybrid library CCmax; conditions: mean of both orientations
T20 chain: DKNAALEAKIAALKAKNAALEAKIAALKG

4H3591-AA = target: T21, 4H3591-AA; test: two-hybrid library CCmax
T21 chain: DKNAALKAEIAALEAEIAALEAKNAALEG

4H3628-AA = target: T22, 4H3628-AA; test: two-hybrid library CCmax; conditions: mean of both orientations
T22 chain: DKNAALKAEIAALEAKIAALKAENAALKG

4H3666-AA = target: T23, 4H3666-AA; test: two-hybrid library CCmax; conditions: mean of both orientations
T23 chain: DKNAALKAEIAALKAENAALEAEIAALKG

4H3709-AA = target: T24, 4H3709-AA; test: two-hybrid library CCmax; conditions: mean of both orientations
T24 chain: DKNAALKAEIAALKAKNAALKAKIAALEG

4H391-AA = target: T25, 4H391-AA; test: two-hybrid library CCmax; conditions: mean of both orientations
T25 chain: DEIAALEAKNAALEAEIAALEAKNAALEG

4H3920-AA = target: T26, 4H3920-AA; test: two-hybrid library CCmax; conditions: mean of both orientations
T26 chain: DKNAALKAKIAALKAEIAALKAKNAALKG

4H3939-AA = target: T27, 4H3939-AA; test: two-hybrid library CCmax; conditions: mean of both orientations
T27 chain: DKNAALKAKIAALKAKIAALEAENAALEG

4H428-AA = target: T28, 4H428-AA; test: two-hybrid library CCmax; conditions: mean of both orientations
T28 chain: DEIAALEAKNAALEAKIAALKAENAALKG

4H478-AA = target: T29, 4H478-AA; test: two-hybrid library CCmax; conditions: mean of both orientations
T29 chain: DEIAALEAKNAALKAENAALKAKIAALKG

4H497-AA = target: T30, 4H497-AA; test: two-hybrid library CCmax; conditions: mean of both orientations
T30 chain: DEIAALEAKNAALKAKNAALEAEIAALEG

4H656-AA = target: T31, 4H656-AA; test: two-hybrid library CCmax; conditions: mean of both orientations
T31 chain: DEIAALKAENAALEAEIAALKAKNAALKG

4H675-AA = target: T32, 4H675-AA; test: two-hybrid library CCmax; conditions: mean of both orientations
T32 chain: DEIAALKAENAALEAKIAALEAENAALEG

4H971-AA = target: T33, 4H971-AA; test: two-hybrid library CCmax; conditions: mean of both orientations
T33 chain: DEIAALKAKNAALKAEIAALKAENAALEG

4H3129-bA = target: T34, 4H3129-bA; test: two-hybrid library CCNG1
T34 chain: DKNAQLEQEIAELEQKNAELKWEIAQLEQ

4H3172-bA = target: T35, 4H3172-bA; test: two-hybrid library CCNG1
T35 chain: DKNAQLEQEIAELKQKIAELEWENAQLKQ

4H3414-bA = target: T36, 4H3414-bA; test: two-hybrid library CCNG1
T36 chain: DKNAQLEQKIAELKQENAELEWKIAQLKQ

4H3631-bA = target: T37, 4H3631-bA; test: two-hybrid library CCNG1
T37 chain: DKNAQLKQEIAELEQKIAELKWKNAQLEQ

4H3638-bA = target: T38, 4H3638-bA; test: two-hybrid library CCNG1
T38 chain: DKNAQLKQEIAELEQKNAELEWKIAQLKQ

4H3817-bA = target: T39, 4H3817-bA; test: two-hybrid library CCNG1
T39 chain: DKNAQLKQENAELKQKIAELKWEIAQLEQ

4H3974-bA = target: T40, 4H3974-bA; test: two-hybrid library CCNG1
T40 chain: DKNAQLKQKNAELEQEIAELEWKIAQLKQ

4H570-bA = target: T41, 4H570-bA; test: two-hybrid library CCNG1
T41 chain: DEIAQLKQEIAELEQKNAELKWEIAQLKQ

4H584-bA = target: T42, 4H584-bA; test: two-hybrid library CCNG1
T42 chain: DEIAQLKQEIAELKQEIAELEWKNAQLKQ

4H619-bA = target: T43, 4H619-bA; test: two-hybrid library CCNG1
T43 chain: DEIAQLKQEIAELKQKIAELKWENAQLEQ

4H850-bA = target: T44, 4H850-bA; test: two-hybrid library CCNG1
T44 chain: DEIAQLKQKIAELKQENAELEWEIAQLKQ

4H906-bA = target: T45, 4H906-bA; test: two-hybrid library CCNG1
T45 chain: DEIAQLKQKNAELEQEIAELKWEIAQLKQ

P11A = target: T46, P11A; test: two-hybrid library CCNG1
T46 chain: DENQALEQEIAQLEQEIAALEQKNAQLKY

interaction score (4H1109-AA): 0.484
interaction score (4H1146-AA): 1.4
interaction score (4H1348-AA): -1.31
interaction score (4H1391-AA): -1.71
interaction score (4H146-AA): -1.63
interaction score (4H1809-AA): -1.32
interaction score (4H1854-AA): 1.5
interaction score (4H189-AA): -0.821
interaction score (4H2248-AA): -0.482
interaction score (4H2283-AA): -0.782
interaction score (4H2713-AA): -1.49
interaction score (4H2742-AA): -1.33
interaction score (4H2948-AA): -1.16
interaction score (4H2991-AA): -0.637
interaction score (4H3029-AA): -0.926
interaction score (4H3066-AA): -0.41
interaction score (4H3102-AA): 1.35
interaction score (4H3121-AA): -0.8
interaction score (4H3417-AA): 0.592
interaction score (4H3446-AA): -0.106
interaction score (4H3591-AA): -1.05
interaction score (4H3628-AA): -1.06
interaction score (4H3666-AA): 0.67
interaction score (4H3709-AA): 2.13
interaction score (4H391-AA): -1.46
interaction score (4H3920-AA): -1.35
interaction score (4H3939-AA): -1.76
interaction score (4H428-AA): -1.21
interaction score (4H478-AA): -1.55
interaction score (4H497-AA): -1.77
interaction score (4H656-AA): -1.33
interaction score (4H675-AA): -0.943
interaction score (4H971-AA): 0.0745
Binder: DENAALEAEIAALKAENAALEAKIAALEG [4H1109-AA]

interaction score (4H3129-bA): -0.78
interaction score (4H3172-bA): -1.38
interaction score (4H3414-bA): 2.61
interaction score (4H3631-bA): -0.762
interaction score (4H3638-bA): 0
interaction score (4H3817-bA): -0.661
interaction score (4H3974-bA): -0.932
interaction score (4H570-bA): -1.13
interaction score (4H584-bA): -1.75
interaction score (4H619-bA): -1.59
interaction score (4H850-bA): 0.0228
interaction score (4H906-bA): -0.839
interaction score (P11A): 0.0953
Binder: DKNAQLEQEIAELEQKNAELKWEIAQLEQ [4H3129-bA]
